From a protein production outcome set (Wang et al. 2014)

Assay: label from the status in PepcDB records
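Also: failed if final PepcDB status was selected cloned or expressed and not failed if soluble or beyond.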

| Sequence | protein production |
| --- | --- |
| FGVWVLVPRSFPRCVWFQRSMAVVIRLQGLPIVAGTMDIRHFFSGLTIPDGGVHIVGGELGEAFIVFATDEDARLGMMRTGGTIKGSKVTLLLSSKTEMQNMIELSRRRFETANLDIPPANASRSGPPPSSGMSSRVNLPTTVSNFNNPSPSVVTATTSVHESNKNIQTFSTASVGTAPPNMGASFGSPTFSSTVPSTASPMNTVPPPPIPPIPAMPSLPPMPSIPPIPVPPPVPTLPPVPPVPPIPPVPSVPPMTPLPPMSGMPPLNPPPVAPLPAGMNGSGAPMNLNNNLNPMFLGPLNPVNPIQMNSQSSVKPLPINPDDLYVSVHGMPFSAMENDVRDFFHGLRVDAVHLLKDHVGRNNGNGLVKFLSPQDTFEALKRNRMLMIQRYVEVSPATERQWVAAGGHITFKQNMGPSGQTHPPPQTLPRSKSPSGQKRSRSRSPHEAGFCVYLKGLPFEAENKHVIDFFKKLDIVEDSIYIAYGPNGKATGEGFVEFRNEADYKAALCRHKQYMGNRFIQVHPITKKGMLEKIDMIRKRLQNFSYDQREMILNPEGDVNSAKVCAHITNIPFSITKMDVLQFLEGIPVDENAVHVLVDNNGQGLGQALVQFKNEDDARKSERLHRKKLNGREAFVHVVTLEDMREIEKNPPAQGKKGLKMPVPGNPAVPGMPNAGLPGVGLPSAGLPGAGLPSTGLPGSAITSAGLPGAGMPSAGIPSAGGEEHAFLTVGSKEANNGPPFNFPGNFGGSNAFGPPIPPPGLGGGAFGDARPGMPSVGNSGLPGLGLDVPGFGGGPNNLSGPSGFGGGPQNFGNGPGSLGGPPGFGSGPPGLGSAPGHLGGPPAFGPGPGPGPGPGPIHIGGPPGFASSSGKPGPTVIKVQNMPFTVSIDEILDFFYGYQVIPGSVCLKYNEKGMPTGEAMVAFESRDEATAAVIDLNDRPIGSRKVKLVLG | not failed |
| MRVLKFGGSSLADADRFLRAADIIANNAQQEEVAVVLSAPGKTTNKLVAVIEGALRNGEAELQINELEESFKTLFADIQAVLPNLEGAAFDNQVKTSLSQLRQFVHGINLLGMCPNNVNAR | failed |
| METLSDVFATFSQRGDTTAFVHRTGVRRYVFTYLDLHALSLRMNRWLADQGVGEGDRVVLWGPNSPWWAVAFWGIVTRGAVAVPVDFMSGAERAEIIAGLTDAKLVIQSRDKLEHHHHHH | not failed |
| MIRKKQTEKPSEWDPPAPSTVYIKIKNIPYETFKTKLNQGLVTTDLDQIRYRLEKHIYCCGVCSKHVNGYCVITNRKAEPGWICKSFVPKEEFIYLDSRPDRKDPAEFRYLSETGLEKDYIESAGARERRHGNEGTKALYDEGVTLYRQGRLKLALEAFDSVLEANPLDFAALFHKGNALLKLKRYEEALEVFERASEINQENAGLWTNLGFIFTKLERFRDSLEAFEKSISLNPVQKNAWEGRDAVIARVRLCEERLRESEEALKKNPEDPDTLFKIGKIHLRLGEQEKAIQAFKKALEIKPENAEAWQFRGKVLFKAGSEKEALHAFEKATRLKPDYAEAWFEKGNAFLKLENLKGAENAFKIAARLWDSKGIKSKAESARDKVKRLHSSN | failed |
| MGEYYHATVNGVVEYGAFVDLSEHVSGLIHESTYSGDPDLAVDDDVIVHLSAVRDNGDLSFEFVDPEEYRTEQRSLEHHHHHH | failed |
| MKEFVHDYLAASVENEEEGGRMRWYPWHSAEYRFNHILNVVDIATKIARKEGANVDVTRVAALFHDIAKLEAEQDLHAEAGARIAREYLRAHGDYPESFIEQVCSAVEVHSYQGSLDDLPLEVQCLIEADILDKVGANGTALMLLRMGYESRTHMDAAEMVDRVIERGEDARERVQSDTAESLVHQRLKRTRWFQEWLTMEVAEMAVEDDLDDVATGMGDSLEHHHHHH | not failed |
| MKALHFGAGNIGRGFIGKLLADAGIQLTFADVNQVVLDALNARHSYQVHVVGETEQVDTVSGVDAVSSIGDDVVDLIAQVDLVTTAVGPVVLERIAPAIAKGLVKRKEQGNESPLNIIACENMVRGTTQLKGHVMNALPEDAKAWVEEHVGFVDSAVDRIVPPSASATNDPLEVTVETFSEWIVDKTQFKGALPNIPGMELTDNLMAFVERKLFTLNTGHAITAYLGKLAGHQTIRDAILDEKIRAVVKGAMEESGAVLIKRYGFDADKHAAYIQKILGRFENPYLKDDVERVGRQPLRKLSAGDRLIKPLLGTLEYSLPHKNLIQGIAGAMHFRSEDDPQAQELAALIADKGPQAALAQISDLDANSEVVSEAVTAYKAMQ | failed |
